In a protein production outcome set (Wang et al. 2014):

Test: label from the status in PepcDB records

Sequence	protein production
MKINPRVIYLSIVFIFLVIMASNVAVADDLEAEKLTKVASNVALDSNPVWSPDGKEILFSRENGLYKVFSDGTGEMKLTSTKGKNFTSDYAWSPDGSKISYIENRYDTAAGPRSDLWIMNSNGEGKKQLLDTIWYRYYYIYTWFPTGSKILYAEIYEEIGGSYWEMDSDGSNKHNIGNMGIANGIALSPDASKIAICAHGPADVDYYIDVGKVGKDLTSFRYGLITHQTQSRQSQIWAPDGSKIVYYAGKNESYYEDENSEIYIVKADGTGRIQLTSDSANDNSPVFSPDGSKIVFVSDKAGNEDIWIMDADGKNKVQLTSDPASDSFPVWSPDGKKIAFWSNRGGNNNIYTLTLENEKTPVAAFCASQTSGNAPLKVSFTDKSTGTPTSWSWSFGDGKTSTLKNPLHIYSKAGKYTVSLTVKNAAGTNMKTITKYITVKTAPVKPIAAFSASPGSGKTPLKVKFTDTSTGTPTAWRWNFGDGSKSFLQNPIHKYSKTGIYTVDLTVKNAAGRNTVTKTDYITVVTKPVAEFSATPTTGKLPLTVEFTDKSTGVPTGWIWSFGDGTISREQNPKHQYLQEGKYKIILSVTNVAGSSTIKKINYIRVTTNTRPRIL	failed
EMTDLQSTHKNFLFEIEEVGIKNLTYPVLIDQYQTAGLFSFSTSLNKNEKGINMSRILESVEKHYDNGIELEFNTLHQLLRTLQDKMNQNAAGVDVSGKWFFDRYSPVTNIKAVGHADVTYGLAIENHTVTRKELTIQAKVTTLCPCSKEISEYSAHNQRGIVTVKAYLDKNNDVIDDYKDKILDAMEANASSILYPILKRPDEKRVTERAYENPRFVEDLIRLIAADLVEFDWIEGFDIECRNEESIHQHDAFARLKYRK	not failed
KLKKKEYEQELKKLQVELVKLQEWVKHKGLKVVVLFEGRDAAGKGGVIKRITEKLNHRVCRVVALPAPTEKEKTQWYFQRYVAHLPSAGEIVLFDRSWYNRAGVEKVMGFCTPDEYEEFLRSCPEFERMLQRSGIILLKYWFSVSDEEQEKRFLGRINTPIKRWKFSPMDLESRHRWAEYSEAKDKMFAYTDTKNCPWWVVPSDSKQKARLNCISHLLSQIEYKALEYP	not failed
MRQIPQNHIHTRSTPFWNKETAPAGIFERHLDKGTRPDVYPRLSVMQGAVKYLGYADEHCSEPEEIMVINAGEFGVFPPEKWHNIEVMTDDTYFNIDFFVAPEVLMEGATSRKVIHAGRELEHHHHHH	not failed
MVEGSQEAKVAEILQKMEEMIGEEPKPQKLFSKVAPEWLERQMDERQFVMSLESIPEKYKHLIMIAVAAAVGSKMCTEVFTKIAKRRGVSEREIGEAILVARFALASTIFATVTPALEWLEGGDEE	failed
MTDEKKVPSKPARPARKPRADKPADAKPAAVPKVAAPAVVEGSSTNAAAVKKSLRDGGMTALPSEILFAVGSIPLVVDKDALSTLAAALVASDDPSTWFVANRELIRAVVFVPQQNNVLRATPLLSVRPVASLSSVHNWQVRNHLSGLHVVVGGTGAGKSKWLNAQTPDVTIRWGEPGETFDMEESSIAVADLTEMLAVALLLATADYRVVIDSFRNLVFGITGAAGPGGVSVALYAALTSLNNICAELGVLLVAAINPMSSDDKVSLVYNNIAASVAGMTVVNNAAVVSQTIRSGTGRIFSGEPAPRNDSPVEYHEPRHTQLDEPSGPSARIRLESNNIDPDDENDNRPRRGARISL	not failed
EKIWPRDRSASRERSLSPRSDRRSVASSQPAKPTKVTLVKSRKNEEYGLRLASHIFVKEISQDSLAARDGNIQEGDVVLKINGTVTENMSLTDAKTLIERSKGKLKMVVQRDERATLLNVPDLSDSIHSANASERDDISEIQSLASDH	failed
MKSYLVGGAVRDALLGQPAGDCDWVVVGADPAHMKSLGFKPVGRDFPVFLHPKTGEEFALARTERKNGHGYRGFIVNADPTVTLEQDLQRRDFTINAIARDQTNGTLIDPYGGVNDLEQRVLRHISPAFAEDPLRVLRAARFMARLAPLGFSIAPETLAMMRQMAANGELNSLIPERIWKELSRSLTYTQPAAFLHTLRTVNALEVVLPELNALYGVPQHADYHPEIDTGLHQELVSDIAAKLAPGDMLIGFAALCHDLGKALTPRATWPHHPMHEQRGMAPTQQLSERLKVPRNYQQLALIACREHLNVHRLSKLHDNTVYELLQRCDAFRRPERIAQLAIVCEADYRGRYGHEDANYPQGQHLCRLHAAALAINARDLNRQDLHGTQIGEALAQARIRAISSAGVYDGGTGTNF	failed
MNHPIVGLIAAVVLAIGVVELHLWLPAIQSVSPLLISIGVGILVSHILPARCKEPLAPGLNIAKGSILRVAIVLYGFNITLQALSQVGIYGLFSAVTMVSVILFVGIWAGTKLFKLDKEQAILVAVGSAICGAAAVAAMEPIIKAKPHKVITAISTVVVFGTLSMLLMPLVFQFFDINEAQYGLWVGVSVHEVAQVVVAGDSVSSNAAHMAVLEKMLRVVLLVPVLLTFAVWMRQKSKGSDKESGDNKVSVPWFAFLFIGAIIINSLNWIPDDVTTAFTAAATYLLCIAMTALGMLTHISVIKQGGAKAFALAALLFVSLFITGYLLAQFA	failed
MQQVFNVSVPVPDDVVIISKEEYLNLLSDNEQGKWWDIDNLQELLGIGRSKLINDILLNPDIKKEVDLSINPNGFIVYPKGKGSRYKILATKARKYFEDNFGSILLNS	failed
MTDAAALPGQPRGGVLSGPATRRAVNVLAPNASAMTLDGTNTWIVAEPDSELAVVIDPGPLDDVHLRNVVDTAERAGRRIALTLLTHGHPDHAEGAARFAELTGTNVRALDPALRLGDEGLAPGDVVTVGGLELRVVPTPGHTSDSLCFHLPADRAVLTGDTVLGRGTTVVAHPDGRLGDYLDSLRRLRSLTVDDGVHTVLPGHGPVLDDAQGAVEFYLAHRAHRLAQVETAVENGYRAPAEVVAHVYADVDRSLWPAAELSVRAQMDYLREHGLI	failed
MKTVPAMLGTPRLFREFFILHLGLWSILCEKATKRNDEECEVQLNIKRNSKHSAWTGELFKIECPVKYCVHRPNVTWCKHNGTIWVPLEVGPQLYTSWEENRSVPVFVLHFKPIHLSDNGSYSCSTNFNSQVINSHSVTIHVRERTQNSSEHPLITVSDIPDATNASGPSTMEERPGRTWLLYTLLPLGALLLLLACVCLLCFLKRIQGKEKKPSDLAGRDTNLVDIPASSRTNHQALPSGTGIYDNDPWSSMQDESELTISLQSERNNQGIVYASLNHCVIGRNPRQENNMQEAPTEYASICVRS	not failed
MFLKRIELQREKVLSFQEYPFSIPAIKHFQRLELKSRVTFFVGENGSGKSTLLEAIADKCEFNTAGGGRNNYYEVDASESALGDYIRLSWLPKVSNGFFLRAESFYHFASHVDEVDARHAYGGRSLHHQSHGEAFLSLFANRFNRKGIYLLDEPEAALSPRRQLSFLAILHDLVSSGDSQFIIATHSPILLGYPHATILSFDHGTIEETTYEQTEHYQLTRYFLENRERMLRELLGELEHHHHHH	failed
MVTSSSMRRCRGALSLSFWIFLVLRSVLSRPVFGAAAGPAVQSARQCSASRGTGESDPPPFQPTLRLFPPSRRRRSYCRAMTPSRPSPDFPDGGFVQVRGARQHNLKDISVKVPRDALVVFTGVSGSGKSSLAFGTLYAEAQRRYLESVSPYARRLFNQAGVPDVDAIDGLPPAVALQQARGTPTARSSVGSVTTLSNLLRMLYSRAGDYPPGQGIVYAEGFSPNTPEGACPECHGLGRVYTVTEDSMVPDPSLTIRERAVAAWPQAWGGQNQRDILVTLGIDVDVPWRELPEETRHWILFTDEQPVVPVYPGLTPAETQRALKKKMEPSYMGTFSSARRHVLHTFANTESASMKKRVQGYMISEECPLCHGKRLRQEALNVTFAGLDITELSRLPLARVSELLRPYAEEREPGHAERVKNRPEQAIALQRMAADLVKRLDVLLHLGLGYLGLDRSTPTLSPGELQRLRLATQLYSNLFGVVYVLDEPSAGLHPADTEALLSALENLKRGGNSLFVVEHDLDVIRRADWLVDVGPEAGEKGGEILYSGPPEGLKHVPESQTGQYLFADRHTEPHTPREPAGWLELNGVTRNNLDNLDVRFPLGVMTSVTGVSGSGKSTLVSQALVDALAAHFGQPVNPDPEDDEDPADHTAGSARLGGDLAQITRLVRVDQKPIGRTPRSNMATYTGLFDQVRKLFAATPLAKKRGYNAGRFSFNVKGGRCEHCQGEGWVMVELLFLPSVYAPCPVCHGTRYNAETLEVEYRGKNIADVLALTVDEAHDFFADESAIFRALDTLREVGLGYLRLGQPATELSGGEAQRIKLATELQRSGRGGTVYVLDEPTTGLHPADVERLQRQLVKLVDAGNTVIAVEHKMQVVAASDWVLDIGPGAGEDGGRLVAQGTPAEVAQAAGSVTAPYLRAALRLEHHHHHH	failed
IDGIFIMDAEGHYLDVNPAICSAIGYTRDEFLALDWGVLSRGVDSGWAAASLARIVGGEPLREERTVWTRNGDQLTVELSAHLLPD	failed
MLSVSWEYNFSFKKLNVPSFSVCRMLCGKLQNPLDHKKDEASHVKHASQGDVPFSGPLQVSKSNSFAWAKREKDDVCVRVHNRSLSRGYIPSLSGHSPAFNGKSDVESKINKDEKEDKTDSRGEESYEMVKRSMLKQWRQLERPDSFGASDEYHSQELSLGLYQRDEMAKKMGNNLVRP	failed
MITSLPDNYSPQRQIPIKPDITFVHVRLAHFIAMGAGIGLIRYMPGTAGTIAAFPFYRFLDSIIEPVSLLLIIDVFFIMGIWACAVTGRALNSPDHSGMVWDEIVAFMLVLFFTPDHWTWQLAAFFLFRFFDIVKPAPIGYLDARLKGGLGVMLDDLLAAFYTLLCLAGWKSMVLFESYF	failed
AENNMVRLSRIIIDPERLEEYNAYLKEEIEVSMRLEPGVLVLYAVAEKERPNHVTILEIYADEAAYKSHIATPHFKKYKEGTLDMVQMLELIDATPLIPGLKMK	not failed
IQVFVKNPDGGSYAYAINPNSFILGLKQQIEDQQGLPKKQQQLEFQGQVLQDWLGLGIYGIQDSDTLILSKKKG	not failed
MEKRFYILTIVVEDREKAYRQVNELLHNFSEDILLRVGYPVREENMAIIFLVLKTDNDTIGALSGKLGQISGVRVKTVPLKR	not failed
CTRAVYLGPDRMVVTGRTMDWKEDIMSNIYVFPRGMQRAGHNKEKTVNWTSKYGSVIATGYDIGTCDGMNEKGLVASLLFLPESVYSLPGDTRPAMGISIWTQYVLDNFATVREAVDEMKKETFRIDAPRMPNGGPESTLHMAITDETGNTAVIEYLDGKLSIHEGKEYQVMTNSPRYELQLAVNDYWKEVGGLQMLPGTNRSSDRFVRASFYIHAIPQTADAKIAVPSVLSVMRNVSVPFGINTPEKPHISSTRWRSVSDQKNKVYYFESTLTPNLFWLDLKKIDFSPKAGVKKLSLTKGEIYAGDAVKDLKDSQS	not failed
MEPGLRLLIQLVLEFAPVFVNILHKRSEESLTTARYQVPNLIQGFIETINNINDIDNSNKSLEQEKLWQQQLVAYQRETQAQIANQQRDTALKLPEVNKILDSWPLRLYPSQILESHHSYERKPLKVFIAPPKIHFDKFDNHVETYSEIELMLAEGLREFINENYSLHSPTRPIEFLAGAWDSKRFHSESSIKALFGMLKTEPILILESENDGDYLNFRIAYWGLTQGTYYYKTISRLPYKEIIQNSAKNRALEWKKVRDELLEIGVDVEEINEFGKDNVFNLAILEKAEKWQAQGIDISKLSLQYRVSQQDIEQLCQVLITCHCLVAAWVADIYHLGNHDIPPLLPELLPSLLKNAIDVQSLQAIASSYKQVYEALEKERLYWIPELSMQLAQSLSHLPDTSWAQAEVDYSINTWLELRQVSLQQFTSPLEAMQSVVKIEDEEYIQKLREYFTVIGDRHNLQFVEKLLEAIATLKYKRSLEYPYLTKTITGHSGKVKSVAISPDGEVIVSGCTDQTVNIWNLQTGKLIRTLTGNLGEVSSVAISPDGNFLAVGSGVHPRSNVKVWHLKTGKLLHTLLGHQKPVNVVVISPDGQILASGSNKIKIWNLQKGDGVPPTVGDRICTLWHSSAVHAIAISPDSTILASGSSDNKIRLWNPRTGDPLRTLNSHDNEVKAIAISRDGQFLFSGSADTTIKIWHLITGQILHTLTGHSGDIKSLTTSPNGQFLFSGSADTTIKIWRISTGELLHTLTGHSASVNSVAISPGGNLLASGSADQTIKIWQIDKI	failed
